Results as given in publication PMC3319458 (2012).

Biological target: Nfs1/Isd11/Isu2 (SDU) complex (Homo sapiens, UniProt Q9Y697)
Assay: cysteine desulfurase activity titration

Kd: 220 nM
B1: Frataxin 82-210 (protein)
chain: GTLGHPGSLDETTYERLAEETLDSLAEFFEDLADKPYTFEDYDVSFGSGVLTVKLGGDLGTYVINKQTPNKQIWLSSPSSGPKRYDWTGKNWVYSHDGVSLHELLAAELTKALKTKLDLSSLAYSGKDA
